± gives the uncertainty stated by the source.
B1: Glucocorticoid receptor, residues 419 to 494; numbered along this chain, P04150 (parent)
chain: KLCLVCSDEASGCHYGVLTCGSCKVFFKRAVEGQHNYLCAGRNDCIIDKIRRKNCPACRYRKCLQAGMNLEARKTK

Variants of: B1
Experiment: abundance fitness (aPCA) (normalised: wild type 0, dead -1); higher = more abundant; growth selection in yeast, the domain comes from the species named
Details: Homo sapiens

| Variant | abundance fitness |
| --- | --- |
| KLCLVRSDEASGCHYGVLTCGSCKVFFKRAVEGQHNYLCAGRNDCIIDKIRRKNCPACRYRKCLQAGMNLEARKTK [C6R] | -0.852 ± 0.085 |
| KLCLVCSDEASGCHYGVLTCGSCSVFFKRAVEGQHNYLCAGRNDCIIDKIRRKNCPACRYRKCLQAGMNLEARKTK [K24S] | 0.062 ± 0.055 |
| KLCLVCSDEASGCHYGVLTCGSCKVFFKRAVEGQHNYLCAGRNDCIIDKIRRKNCPACRYRKCLQAGMNFEARKTK [L70F] | -0.08 ± 0.065 |
| KLCLVCSDEASGCHYGVLTCGSCKVFFKRAVEGQHNYLCAGRNDCIIDKIRRKNCPACRYRKCLQAGMNSEARKTK [L70S] | 0.052 ± 0.039 |
| KLCLVCSDEASGCHYGVLTCGSCKVFFKRAVEGQHNYLCAGRNDCIIDKIRRKNCPACRYRKCLQAGMNLEVRKTK [A72V] | -0.043 ± 0.035 |
| KLCLVCSDEASGCHYGVLTCGSCKVFFKRAVEGQHNYLCAGRNDCIIDKIRRKNCPACRYRKCLQAGMNLELRKTK [A72L] | -0.015 ± 0.036 |
| KRCLVCSDEASGCHYGVLTCGSCKVFFKRAVEGQHNYLCAGRNDCIIDKIRRKNCPACRYRKCLQAGMNLEARKTK [L2R] | 0.032 ± 0.035 |
| KLCLVCSDEASGCHYGVLTCGSCKVFFKRAVEGQHCYLCAGRNDCIIDKIRRKNCPACRYRKCLQAGMNLEARKTK [N36C] | -0.133 ± 0.066 |
| KLCLVCSDEASGCHYGVLTCGSCKVFFKRAVEGQHNYLCAGRNDCIIDKIRPKNCPACRYRKCLQAGMNLEARKTK [R52P] | -0.203 ± 0.064 |
| KLCLVCSDEASGCHWGVLTCGSCKVFFKRAVEGQHNYLCAGRNDCIIDKIRRKNCPACRYRKCLQAGMNLEARKTK [Y15W] | 0.008 ± 0.049 |
| KLCLVCSDEASGCHQGVLTCGSCKVFFKRAVEGQHNYLCAGRNDCIIDKIRRKNCPACRYRKCLQAGMNLEARKTK [Y15Q] | -0.08 ± 0.046 |
| KLCLVCSDEASGCHEGVLTCGSCKVFFKRAVEGQHNYLCAGRNDCIIDKIRRKNCPACRYRKCLQAGMNLEARKTK [Y15E] | -0.067 ± 0.042 |
| KLCLVCSDEASGCHYGVLTCGSCKVFFKRAVEGQHNYLCAGRNDCIIDKIRRKNCPACRYRKYLQAGMNLEARKTK [C63Y] | -0.85 ± 0.22 |
| KLCLVCSDEASGCHYGVLTCGSCKYFFKRAVEGQHNYLCAGRNDCIIDKIRRKNCPACRYRKCLQAGMNLEARKTK [V25Y] | -0.129 ± 0.098 |
| KLCLVCSDEASGCHYGVLTCGSCKVFFKRAVEGQHNYLCAGRNDCWIDKIRRKNCPACRYRKCLQAGMNLEARKTK [I46W] | -0.137 ± 0.036 |
| KLCLVCSDEASGCHYGVLTCGSCKVFFKRAVEGYHNYLCAGRNDCIIDKIRRKNCPACRYRKCLQAGMNLEARKTK [Q34Y] | -0.136 ± 0.095 |
| KLCLVCSDEASGCHYGVLTCGSCKVFFKRAVEGDHNYLCAGRNDCIIDKIRRKNCPACRYRKCLQAGMNLEARKTK [Q34D] | -0.046 ± 0.074 |
| KLCLVCSMEASGCHYGVLTCGSCKVFFKRAVEGQHNYLCAGRNDCIIDKIRRKNCPACRYRKCLQAGMNLEARKTK [D8M] | -0.216 ± 0.067 |

| Variant | abundance fitness |
| --- | --- |
| KLCLVCSYEASGCHYGVLTCGSCKVFFKRAVEGQHNYLCAGRNDCIIDKIRRKNCPACRYRKCLQAGMNLEARKTK [D8Y] | -0.409 ± 0.084 |
| KLCLVCSLEASGCHYGVLTCGSCKVFFKRAVEGQHNYLCAGRNDCIIDKIRRKNCPACRYRKCLQAGMNLEARKTK [D8L] | -0.646 ± 0.071 |
| KLCLVCSDEAEGCHYGVLTCGSCKVFFKRAVEGQHNYLCAGRNDCIIDKIRRKNCPACRYRKCLQAGMNLEARKTK [S11E] | 0.054 ± 0.044 |
| KLCLVCSDEASGCHYGVLTCGSCKVCFKRAVEGQHNYLCAGRNDCIIDKIRRKNCPACRYRKCLQAGMNLEARKTK [F26C] | -0.636 ± 0.17 |
| KLCLVCSDEASGCHYGVLTCGSCKVHFKRAVEGQHNYLCAGRNDCIIDKIRRKNCPACRYRKCLQAGMNLEARKTK [F26H] | -0.513 ± 0.16 |
| KLCLVCSDEASGCHYGVLTCGSCKVFFKRAVEGQHNYLCAMRNDCIIDKIRRKNCPACRYRKCLQAGMNLEARKTK [G41M] | -0.004 ± 0.052 |
| KLCLVCSDEASGCHYGVLTCGSCKVFFKRAVEGQHNYLCAGRNDCIIDKIRRKNCPACRYRKCLQAGMNLEARKHK [T75H] | -0.038 ± 0.078 |
| KLCLPCSDEASGCHYGVLTCGSCKVFFKRAVEGQHNYLCAGRNDCIIDKIRRKNCPACRYRKCLQAGMNLEARKTK [V5P] | -1.1 ± 0.23 |
| KLCLTCSDEASGCHYGVLTCGSCKVFFKRAVEGQHNYLCAGRNDCIIDKIRRKNCPACRYRKCLQAGMNLEARKTK [V5T] | -0.742 ± 0.11 |
| KLCLFCSDEASGCHYGVLTCGSCKVFFKRAVEGQHNYLCAGRNDCIIDKIRRKNCPACRYRKCLQAGMNLEARKTK [V5F] | -0.874 ± 0.24 |
| KLCLVCSDEASGCHYGVLTCGSCKVFFKRAVEGQHNYLCAGRNKCIIDKIRRKNCPACRYRKCLQAGMNLEARKTK [D44K] | -0.062 ± 0.058 |
| KLCLVCSDEASGCHYGVLTCGSCKVFFKRAVEGQHNYLCAGRNDCIIDKIRRKNLPACRYRKCLQAGMNLEARKTK [C55L] | -1.1 ± 0.15 |
| KLCLVCSDEASGCHYGVLTCGSCKVFFKRAVEGQHNYLCAGRNDCIIDKIRRKNCPACRYRKCLQAGINLEARKTK [M68I] | -0.422 ± 0.17 |
| KLCLVCSDEASGCHYGVLTCGSCKVFFKRAVEGQHNYLCAGRNDCIIDKIRRKNCPACRYRKCLQAGTNLEARKTK [M68T] | -0.595 ± 0.12 |
| KLCLVCSDEASGCHYGVLTCGSCKVFFKRAVEGQHNYLCAGRNDCIIDKIRRKNCPACRYRKCLQAFMNLEARKTK [G67F] | -0.447 ± 0.12 |
| KLCLVCSDEASGCHYGVLTCGSCKVFFKRAVEGQHNYLCAGRNDCIIDKIRRKNCPACRYRKCLQAWMNLEARKTK [G67W] | -0.656 ± 0.092 |
| KLCLVCSDEASGCHYGVLTCGSCKVFFKRAVEGQHNYLCAGRNDCIIDKIRRKNCPACRYRKCLQAEMNLEARKTK [G67E] | -0.228 ± 0.07 |
| KLCLVCSDQASGCHYGVLTCGSCKVFFKRAVEGQHNYLCAGRNDCIIDKIRRKNCPACRYRKCLQAGMNLEARKTK [E9Q] | -0.017 ± 0.056 |

— the Human Domainome abundance scans (Beltran et al. 2025)
